Source: PMC12240809 (2025)
Where two headings read alike, the source gives them in different places.

Legend:
Assay in all cases: MST
[1] = target: T1, FoTO1 (facilitator of taxane oxidation), fused to N-terminal mTurquoise2 (Taxus media)
[2] = target: T2, FoTO1(ΔC), FoTO1 with the C-terminal α-helix deleted, fused to N-terminal mTurquoise2 (Taxus media)
[3] = target: T1, FoTO1 (facilitator of taxane …); remark: listed apart in the source
[4] = target: T2, FoTO1(ΔC), FoTO1 with the C-terminal …; remark: listed apart in the source

Kd [1] [µM]	Kd [2] [µM]	Kd [3] [µM]	Kd [4] [µM]	Binder
0.61	> 10	–	–	taxadiene synthase 2 (TDS2), soluble portion, 60 N-terminal amino acids removed (enzyme, RED-tris-NTA dye on the His tag (NanoTemper His-Tag labelling kit)) SGSPTKLATENANAVAESNLIPRLSANYHGDLWHHGVIQTLQTPYQESSSYQERAEELIVKIKDMFKAVEEGAISPSAYDTAWVARVPDGSEKPRFPQALNWLLHNQLQDGSWGLESHFMLSDRLLSTLNSVISLLVWKTGQQQVEQGTLFITENLKLLEGEDELPPDFEIIFPALLQKAKALGMSLPDHDLPFIKSLSVAREARLASYTDNNIPASMLNALEGLEEVIDWDKIMRFQMPCLYSIDLLERLSLVDNIEHLGIGRHFKQEIKVALDYVYRYWSERGIGLGRDSLIPDLNTTALGLRTLRAHGYNVSSEVLNNFKDENGRFFSSLGQTHVELRSMVNLLRASDLAFPDEPLMDDAKIFAEAYLRDALATRISTNTKLFKEIDYAVEYPWHMSIPRLEARSYIDVYDDDYTWQNKTLYRMSNLSNAYCLELAKLDFNIVQSLHQEELKLLTRWWKESGMADINFTRHRVAEVYFSSATFEPEYSSTRIAFTKIGCLQVLFDDMADIFATLDELRDFTEGVKRWDTSLIHKLPDCMQTCFRVWFNLMEEVNNDVSNVQGRDMLNHIRKPWELYFNCYVQEREWLDAGYIPTLEEYLKTYSISVGLGPCTLQPILLMGDIVKDDVVEKVHYPSNLFELVSLSWRLTNDTKTYQAEKARGQQASGIACYMKDNPGSTEEDAIKYICGVVDRALKEACFEYFKPADDVPMSCKSFIFNLRLCVQIFYKFIDGYGIANEEIKDYIRKVYIEPIQV
–	–	0.47	> 10	taxadiene 5α-hydroxylase (T5αH), soluble portion, 47 N-terminal amino acids removed (enzyme, RED-tris-NTA dye on the His tag (NanoTemper His-Tag labelling kit)) SSLKLPPGKLGIPFIGESFIFLRALRSNSLEQFFDERVKKFGLVFKTSLIGHPTVVLCGPAGNRLILSNEEKLVQMSWPAQFMKLMGENSVATRRGEDHIVMRSALAGFFGPGALQSYIGKMNTEIQSHINEKWKGKDEVNVLPLVRELVFNISAILFFNIYDKQEQDRLHKLLETILVGSFALPIDLPGFGFHRALQGRAKLNKIMLSLIKKRKEDLQSGSATATQDLLSVLLTFRDDKGTPLTNDEILDNFSSLLHASYDTTTSPMALIFKLLSSNPECYQKVVQEQLEILSNKEEGEEITWKDLKAMKYTWQVAQETLRMFPPVFGTFRKAITDIQYDGYTIPKGWKLLWTTYSTHPKDLYFNEPEKFMPSRFDQEGKHVAPYTFLPFGGGQRSCVGWEFSKMEILLFVHHFVKTFSSYTPVDPDEKISGDPLPPLPSKGFSIKLFPRP
